The values that follow come from PMC3735941, “Clostridium scindens: a human gut microbe with a high potential to convert glucocorticoids into androgens” (Journal of Lipid Research, 2013).

What all share (experiment): purified protein
Holding throughout (assay type): biochemical, [Clostridium] scindens

Series [1] concerns C[C@]12CCC(=O)C=C1CC[C@@H]1[C@@H]2[C@@H](O)C[C@@]2(C)[C@H]1CC[C@]2(O)C(=O)CO. As to conditions: NADH co-substrate (150 μM in standard assay), 20 mM sodium phosphate pH 7.0, 0.1 M NaCl, 20% glycerol, 10 mM 2-mercaptoethanol, reductive direction.
The subject of series [2] is C[C@]12CCC(=O)C=C1CC[C@@H]1[C@@H]2C(=O)C[C@@]2(C)[C@H]1CC[C@]2(O)[C@@H](O)CO. To be noted: co-substrate not printed for this constant (oxidative direction, NAD+ presumed), 20 mM sodium phosphate pH 7.0, 0.1 M NaCl, 20% glycerol, 10 mM 2-mercaptoethanol.
Series [3] relates to C[C@]12CCC(=O)C=C1CC[C@@H]1[C@@H]2C(=O)C[C@@]2(C)[C@H]1CC[C@]2(O)C(=O)CO. As to conditions: NADH co-substrate (150 μM in standard assay), 20 mM sodium phosphate pH 7.0, 0.1 M NaCl, 20% glycerol, 10 mM 2-mercaptoethanol, reductive direction.

Usually Km stands for the concentration of substrate that gives half-maximal velocity. Consider “DesC (20α-HSDH; desC-ST) ([Clostridium] scindens ATCC 35704)”, for which the results for the Michaelis constant (Km) in series [1], in series [2] and in series [3] were 1.46 µM, 4.54 µM and 5.35 µM, respectively.
